Measured values as given in US20240067714A1.
Blank lines part the entries; values can stand above or below the substance they belong to.

Experiments:
Human TNFα (human) [1] = molecular target: Human TNFα (human) (UniProt P01375); experiment: Binding ELISA to hTNFα
FcγRIIIB (CD16b) [2] = molecular target: FcγRIIIB (CD16b) (UniProt O75015); experiment: SPR, against HUMIRA
Human TNFα (human) [3] = molecular target: Human TNFα (human) (UniProt P01375); experiment: cell-based or functional assay
FcγRIIIB (CD16b) [4] = molecular target: FcγRIIIB (CD16b) (UniProt O75015); experiment: SPR, Mean (one KD printed)
FcRn (FCGRT&B2M) [5] = molecular target: FcRn (FCGRT&B2M) (UniProt P55899); experiment: SPR, steady state model, Mean
FcγRIIA (CD32a, H167) [6] = molecular target: FcγRIIA (CD32a, H167) (UniProt P12318); experiment: SPR, steady state model, Mean
FcγRIIB (CD32b) [7] = molecular target: FcγRIIB (CD32b) (UniProt P31994); experiment: SPR, steady state model, Mean
Human TNFα (human) [8] = molecular target: Human TNFα (human) (UniProt P01375); experiment: SPR, human TNFα, relative to HUMIRA
Human TNFα (human) [9] = molecular target: Human TNFα (human) (UniProt P01375); experiment: ELISA, human TNFα, relative to HUMIRA
Macaque TNFα (macaque) [10] = molecular target: Macaque TNFα (macaque) (UniProt P79337); experiment: SPR, macaque TNFα, relative to HUMIRA
Macaque TNFα (macaque) [11] = molecular target: Macaque TNFα (macaque) (UniProt P79337); experiment: ELISA, macaque TNFα, relative to HUMIRA
FcRn (FCGRT&B2M) [12] = molecular target: FcRn (FCGRT&B2M) (UniProt P55899); experiment: SPR, steady state model, against HUMIRA
FcγRIIA (CD32a, H167) [13] = molecular target: FcγRIIA (CD32a, H167) (UniProt P12318); experiment: SPR, steady state model, against HUMIRA
FcγRIIB (CD32b) [14] = molecular target: FcγRIIB (CD32b) (UniProt P31994); experiment: SPR, steady state model, against HUMIRA
FcγRI (CD64) [15] = molecular target: FcγRI (CD64) (UniProt P12314); experiment: SPR, heterogenous ligand model, Mean KD1
FcγRIIIA (CD16a, F167) [16] = molecular target: FcγRIIIA (CD16a, F167) (UniProt P08637); experiment: SPR, heterogenous ligand model, Mean KD1
FcγRIIIA (CD16a, V167) [17] = molecular target: FcγRIIIA (CD16a, V167) (UniProt P08637); experiment: SPR, heterogenous ligand model, Mean KD1
FcγRI (CD64) [18] = molecular target: FcγRI (CD64) (UniProt P12314); experiment: SPR, heterogenous ligand model, Mean KD2
FcγRIIIA (CD16a, F167) [19] = molecular target: FcγRIIIA (CD16a, F167) (UniProt P08637); experiment: SPR, heterogenous ligand model, Mean KD2
FcγRIIIA (CD16a, V167) [20] = molecular target: FcγRIIIA (CD16a, V167) (UniProt P08637); experiment: SPR, heterogenous ligand model, Mean KD2
FcγRI (CD64) [21] = molecular target: FcγRI (CD64) (UniProt P12314); experiment: SPR, heterogenous ligand model, KD1, against HUMIRA
FcγRIIIA (CD16a, F167) [22] = molecular target: FcγRIIIA (CD16a, F167) (UniProt P08637); experiment: as above
FcγRIIIA (CD16a, V167) [23] = molecular target: FcγRIIIA (CD16a, V167) (UniProt P08637); experiment: as above
FcγRI (CD64) [24] = molecular target: FcγRI (CD64) (UniProt P12314); experiment: SPR, heterogenous ligand model, KD2, against HUMIRA
FcγRIIIA (CD16a, F167) [25] = molecular target: FcγRIIIA (CD16a, F167) (UniProt P08637); experiment: as above
FcγRIIIA (CD16a, V167) [26] = molecular target: FcγRIIIA (CD16a, V167) (UniProt P08637); experiment: as above
Macaque TNFα (macaque) [27] = molecular target: Macaque TNFα (macaque) (UniProt P79337); experiment: SPR, macaque TNFα, reference
Macaque TNFα (macaque) [28] = molecular target: Macaque TNFα (macaque) (UniProt P79337); experiment: ELISA, macaque TNFα, reference

Normalized EC50 vs HUMIRA (Human TNFα (human) [1]): 121%
Substance: Adalimumab K84N (A-84S) (antibody)

Fold change (KD(HUMIRA)/KD(A-8486S)) (FcγRIIIB (CD16b) [2]): 10.9 fold
Rel. binding affinity (KD(HUMIRA)/KD(A-8486S)*100) (FcγRIIIB (CD16b) [2]): 1090%
Normalized EC50 vs HUMIRA (Human TNFα (human) [1]): 116%
L929 apoptosis, Rel. IC50 (Human TNFα (human) [3]): 89%
Kd (FcγRIIIB (CD16b) [4]): 152 nM
Kd (FcRn (FCGRT&B2M) [5]): 1100 nM
Kd (FcγRIIA (CD32a, H167) [6]): 785 nM
Kd (FcγRIIB (CD32b) [7]): 2200 nM
Rel. binding affinity (Human TNFα (human) [8]): 84%
Rel. binding (Human TNFα (human) [9]): 86%
Rel. binding affinity (Macaque TNFα (macaque) [10]): 77%
Rel. binding (Macaque TNFα (macaque) [11]): 99%
Fold change (KD(HUMIRA)/KD(A-8486S)) (FcRn (FCGRT&B2M) [12]): 0.7 fold
Rel. binding affinity (KD(HUMIRA)/KD(A-8486S)*100) (FcRn (FCGRT&B2M) [12]): 71%
Fold change (KD(HUMIRA)/KD(A-8486S)) (FcγRIIA (CD32a, H167) [13]): 0.9 fold
Rel. binding affinity (KD(HUMIRA)/KD(A-8486S)*100) (FcγRIIA (CD32a, H167) [13]): 92%
Fold change (KD(HUMIRA)/KD(A-8486S)) (FcγRIIB (CD32b) [14]): 1.4 fold
Rel. binding affinity (KD(HUMIRA)/KD(A-8486S)*100) (FcγRIIB (CD32b) [14]): 138%
Kd (FcγRI (CD64) [15]): 0.326 nM
Kd (FcγRIIIA (CD16a, F167) [16]): 12.2 nM
Kd (FcγRIIIA (CD16a, V167) [17]): 2.69 nM
Kd (FcγRI (CD64) [18]): 6.27 nM
Kd (FcγRIIIA (CD16a, F167) [19]): 123 nM
Kd (FcγRIIIA (CD16a, V167) [20]): 27.4 nM
Fold change (KD(HUMIRA)/KD(A-8486S)) (FcγRI (CD64) [21]): 1.7 fold
Rel. binding affinity (KD(HUMIRA)/KD(A-8486S)*100) (FcγRI (CD64) [21]): 174%
Fold change (KD(HUMIRA)/KD(A-8486S)) (FcγRIIIA (CD16a, F167) [22]): 21.3 fold
Rel. binding affinity (KD(HUMIRA)/KD(A-8486S)*100) (FcγRIIIA (CD16a, F167) [22]): 2130%
Fold change (KD(HUMIRA)/KD(A-8486S)) (FcγRIIIA (CD16a, V167) [23]): 29.8 fold
Rel. binding affinity (KD(HUMIRA)/KD(A-8486S)*100) (FcγRIIIA (CD16a, V167) [23]): 2980%
Fold change (KD(HUMIRA)/KD(A-8486S)) (FcγRI (CD64) [24]): 1.1 fold
Rel. binding affinity (KD(HUMIRA)/KD(A-8486S)*100) (FcγRI (CD64) [24]): 109%
Fold change (KD(HUMIRA)/KD(A-8486S)) (FcγRIIIA (CD16a, F167) [25]): 9 fold
Rel. binding affinity (KD(HUMIRA)/KD(A-8486S)*100) (FcγRIIIA (CD16a, F167) [25]): 902%
Fold change (KD(HUMIRA)/KD(A-8486S)) (FcγRIIIA (CD16a, V167) [26]): 2.8 fold
Rel. binding affinity (KD(HUMIRA)/KD(A-8486S)*100) (FcγRIIIA (CD16a, V167) [26]): 280%
Substance: Adalimumab K84N-D86N (A-8486S) (antibody)

Kd (FcγRIIIB (CD16b) [4]): 1650 nM
Rel. binding affinity (Macaque TNFα (macaque) [27]): 100%
Kd (FcRn (FCGRT&B2M) [5]): 778 nM
Kd (FcγRIIA (CD32a, H167) [6]): 723 nM
Kd (FcγRIIB (CD32b) [7]): 3040 nM
Rel. binding (Macaque TNFα (macaque) [28]): 100%
Kd (FcγRI (CD64) [15]): 0.566 nM
Kd (FcγRIIIA (CD16a, F167) [16]): 260 nM
Kd (FcγRIIIA (CD16a, V167) [17]): 80.1 nM
Kd (FcγRI (CD64) [18]): 6.86 nM
Kd (FcγRIIIA (CD16a, F167) [19]): 1110 nM
Kd (FcγRIIIA (CD16a, V167) [20]): 76.6 nM
Substance: HUMIRA (adalimumab) (antibody)
